Measurements taken from patent publication US6107104A, “Modulators of anchoring protein function” (ICOS Corporation, priority 1996, dated 2000).

System: PKC
Assay: PKC activity assay with EGF receptor peptide substrate
Type: biochemical
Method: In order to asses the ability of these peptides to modulate PKC activity, the following assay was performed in the presence and absence of AKAP 79 peptide fragments. PKC [50 nM dissolved in 50 mM tris-HCl (pH 7.4), 5 mM MgCl2 1.2 mM CaCl2, 1 mM DTT, 1 mM EGTA and 100 μg/ml PS] was incubated with EGF receptor peptide substrate (5 μM) at 30° C. for five minutes. Phosphorylation reaction was initiated by addition of 100 μM ^32 P-ATP (500 cpm/pmol) and the reaction allowed to proceed for ten minutes at 30° C. Aliquots of reaction mixture were removed and spotted into P81 filter paper and the reaction terminated by washing the filter paper with excess 75 mM phosphoric acid (three washes for three minutes each). After a final wash in ethanol, the p81 filters were dried and radioactivity was measured by liquid scintillation counting.

B1: recombinant fragment to the first 75 amino acids of AKAP 79: recombinant fragment of AKAP 79, amino acids 1-75 (protein, UniProt P24588 1-75, looked up, fragment)
chain: METTISEIHVENKDEKRSAEGSPGAERQKEKASMLCFKRRKKAAKALKPKAGSEAADVARKCPQEAGASDQPEPT
For B1, the “effect of incubation with CaM on inhibition of PKC” value (CaM 15 μM, excess Ca2+) was “prevented inhibition” and the IC50 (read-out: IC50 of inhibition of PKC activity) was 25 ± 5 nM.
